Test results reported in patent US20100256148A1, “USE OF CFMS INHIBITOR FOR TREATING OR PREVENTING BONE CANCER AND THE BONE LOSS AND BONE PAIN ASSOCIATED WITH BONE CANCER” (priority 2007, published 2010).

Target: T1, CSF-1R (Mus musculus, UniProt P09581)
T1 construct: from tissue; host or cells: mouse spleen, in vivo
T1 sequence (P09581 20-977): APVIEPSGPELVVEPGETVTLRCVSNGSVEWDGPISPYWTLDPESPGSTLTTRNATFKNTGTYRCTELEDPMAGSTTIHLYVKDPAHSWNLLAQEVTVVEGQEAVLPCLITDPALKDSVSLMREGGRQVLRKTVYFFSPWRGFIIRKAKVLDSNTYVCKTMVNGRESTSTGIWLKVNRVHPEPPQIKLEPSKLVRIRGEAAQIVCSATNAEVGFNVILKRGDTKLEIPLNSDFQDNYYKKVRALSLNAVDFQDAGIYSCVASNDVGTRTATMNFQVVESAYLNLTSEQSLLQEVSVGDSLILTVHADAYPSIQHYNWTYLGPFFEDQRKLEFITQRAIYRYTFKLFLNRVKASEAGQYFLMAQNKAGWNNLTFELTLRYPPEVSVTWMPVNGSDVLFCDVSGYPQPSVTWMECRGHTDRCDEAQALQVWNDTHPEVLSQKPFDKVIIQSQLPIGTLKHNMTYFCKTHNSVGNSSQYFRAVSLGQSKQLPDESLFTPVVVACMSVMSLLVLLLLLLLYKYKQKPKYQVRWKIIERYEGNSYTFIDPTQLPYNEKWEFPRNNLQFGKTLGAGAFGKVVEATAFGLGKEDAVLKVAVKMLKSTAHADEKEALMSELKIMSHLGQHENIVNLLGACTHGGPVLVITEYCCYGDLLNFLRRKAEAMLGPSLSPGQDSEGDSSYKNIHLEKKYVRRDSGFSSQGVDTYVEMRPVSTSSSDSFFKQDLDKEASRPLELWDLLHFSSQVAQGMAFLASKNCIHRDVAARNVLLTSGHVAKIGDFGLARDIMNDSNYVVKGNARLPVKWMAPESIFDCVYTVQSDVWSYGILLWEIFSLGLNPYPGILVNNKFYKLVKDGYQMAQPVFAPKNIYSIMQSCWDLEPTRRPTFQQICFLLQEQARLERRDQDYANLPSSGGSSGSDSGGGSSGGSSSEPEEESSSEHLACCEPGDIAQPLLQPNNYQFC
Experiment: In vivo pharmacodynamic model: CSF-1-induced splenic c-fos mRNA
Procedure: Eight hours later, mice were administered saline or 0.8 μg recombinant mouse CSF-1 (Cell Biosciences Inc, Norwood, Mass.) via the tail vein. Fifteen minutes after the tail vein injection, mice were sacrificed and spleens were isolated and snap frozen on dry ice. The frozen tissue was homogenized in 1 ml of Trizol (Invitrogen) per 50 mg of tissue, and RNA was purified according to the Trizol instructions and treated with 6.8 Kunitz units of RNase-free DNase (Qiagen, Valencia, Calif.) to degrade contaminating genomic DNA. The RNA was purified further using RNeasy columns (Qiagen). RT-PCR was performed in 25 μL reaction volumes using Reverse Transciptase qPCR Master Mix (Eurogentec) and approximately 50 ng RNA. Applied Biosystems, Inc., (Foster City, Calif.) was the source for the primer probe set for mouse c-fos mRNA (part# Mm00487425) and 18S rRNA (part# 4333760F). Amplification and detection were performed using the ABI Prism 7000 Sequence Detector system. Standard curves were created for c-fos mRNA and for 18s rRNA using RNA isolated from a vehicle-treated, CSF-1-induced mouse and used to calculate relative expression levels in all other samples. c-fos mRNA values were normalized to 18S rRNA content. Averaged, normalized c-fos content in the saline (no CSF-1) group was assigned a value of one and all other groups were expressed as “fold-induced”.

B1: CSF-1: recombinant mouse CSF-1 (Cell Biosciences Inc), given via the tail vein as challenge (protein, UniProt P07141 33-552, looked up)
Macrophage colony-stimulating …: KEVSEHCSHMIGNGHLKVLQQLIDSQMETSCQIAFEFVDQEQLDDPVCYLKKAFFLVQDIIDETMRFKDNTPNANATERLQELSNNLNSCFTKDYEEQNKACVRTFHETPLQLLEKIKNFFNETKNLLEKDWNIFTKNCNNSFAKCSSRDVVTKPDCNCLYPKATPSSDPASASPHQPPAPSMAPLAGLAWDDSQRTEGSSLLPSELPLRIEDPGSAKQRPPRSTCQTLESTEQPNHGDRLTEDSQPHPSAGGPVPGVEDILESSLGTNWVLEEASGEASEGFLTQEAKFSPSTPVGGSIQAETDRPRALSASPFPKSTEDQKPVDITDRPLTEVNPMRPIGQTQNNTPEKTDGTSTLREDHQEPGSPHIATPNPQRVSNSATPVAQLLLPKSHSWGIVLPLGELEGKRSTRDRRSPAELEGGSASEGAARPVARFNSIPLTDTGHVEQHEGSSDPQIPESVFHLLVPGIILVLLTVGGLLFYKWKWRSHRDPQTLDSSVGRPEDSSLTQDEDRQVELPV
Intravenous recombinant CSF-1
  ED50 of splenic c-fos mRNA induction: ca. 0.8 μg/mouse
Intravenous recombinant CSF-1, within fifteen minutes
  induction of splenic c-fos mRNA: 10- to 50 fold
